From patent publication US20180155451A1 (published 2018)

T1: FcγRIIa type H extracellular domain with C-terminal His tag (human, UniProt P12318 34-217)
T1 construct: extracellular domain; also called FcgRIIa H; FcγRIIa H
T1 sequence (looked up): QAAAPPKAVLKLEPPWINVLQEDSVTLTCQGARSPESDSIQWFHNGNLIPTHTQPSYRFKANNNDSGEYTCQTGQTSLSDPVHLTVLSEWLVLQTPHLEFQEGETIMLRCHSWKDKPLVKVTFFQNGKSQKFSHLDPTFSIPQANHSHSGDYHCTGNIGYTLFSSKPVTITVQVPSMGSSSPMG

T2: FcγRIIa type R extracellular domain with C-terminal His tag (human, UniProt P12318 34-217)
T2 construct: extracellular domain; also called FcgRIIa R; FcγRIIa R
T2 sequence (looked up): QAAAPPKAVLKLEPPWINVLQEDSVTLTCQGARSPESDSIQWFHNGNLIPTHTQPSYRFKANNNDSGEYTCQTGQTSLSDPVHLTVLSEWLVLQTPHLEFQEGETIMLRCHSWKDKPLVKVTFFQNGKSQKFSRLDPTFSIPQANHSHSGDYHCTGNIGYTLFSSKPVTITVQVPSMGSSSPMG

T3: FcγRIIb extracellular domain with C-terminal His tag (human, UniProt P31994 43-217)
T3 construct: extracellular domain; also called FcgRIIb
T3 sequence (looked up): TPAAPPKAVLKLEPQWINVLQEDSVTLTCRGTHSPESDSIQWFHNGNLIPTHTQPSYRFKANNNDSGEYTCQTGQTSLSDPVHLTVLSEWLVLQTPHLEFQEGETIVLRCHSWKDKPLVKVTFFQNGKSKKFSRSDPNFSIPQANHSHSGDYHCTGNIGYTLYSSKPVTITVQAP


How the values were obtained:
[1] = target: T4, FcγRIIIa type F extracellular domain with C-terminal His tag (human, UniProt P08637 17-208); assay: SPR (Biacore T100), antibody captured on antigen-peptide chip, FcγR analyte, 1:1 Langmuir fit
T4 construct: extracellular domain; also called FcgRIIIa F; FcγRIIIa F
Procedure: (§1) These antibodies were assessed for the binding activity to each FcγR according to the method described in Reference Example 2.
(§2) Analysis of interaction between objective antibody and the FcγR was carried out using Biacore T100 (GE Healthcare). HBS-EP+ (GE Healthcare) was used as the running buffer, and the measurement temperature was set to 25° C. Chips produced by immobilizing the antigen peptide by the amine coupling method to a Series S Sencor Chip CM5 (GE Healthcare), or alternatively, chips produced by allowing preliminarily biotinylated antigen peptides to interact with and immobilize onto a Series S Sensor Chip SA (certified) (GE Healthcare) were used. Antibodies of interest were captured onto an antigen peptide-immobilized chip, and allowed to interact to each FcγR diluted with running buffer. To regenerate and repeatedly use the chip, the antibodies captured on the chip were washed off by reacting 10 mM glycine-HCl, pH 1.5.
(§3) The FcγR-binding activity of each antibody was assessed primarily using as an indicator the FcγR-binding activity and dissociation constant for FcγR.

[2] = target: T5, FcγRIa extracellular domain with C-terminal His tag (human, UniProt P12314 16-292); assay: as above
T5 construct: extracellular domain; also called FcgRIa; FcgRI
Procedure: as §1, §2, §3

[3] = target: T1, FcγRIIa type H extracellular domain …; assay: as above
Procedure: as §1, §2, §3

[4] = target: T6, FcγRIIIa type V extracellular domain with C-terminal His tag (human, UniProt P08637 17-208); assay: as above
T6 construct: extracellular domain; also called FcgRIIIa V; FcγRIIIa V
Procedure: as §1, §2, §3

[5] = target: T2, FcγRIIa type R extracellular domain …; assay: as above
Procedure: as §1, §2, §3

[6] = target: T3, FcγRIIb extracellular domain with …; assay: as above
Procedure: as §1, §2, §3

[7] = target: T4, FcγRIIIa type F extracellular domain …; assay: SPR (Biacore T100), ratio of KD values
Procedure: as §1, §2, §3

[8] = target: T5, FcγRIa extracellular domain with …; assay: SPR (Biacore T100), ratio of KD values
Procedure: as §1, §2, §3

[9] = target: T1, FcγRIIa type H extracellular domain …; assay: SPR (Biacore T100), ratio of KD values
Procedure: as §1, §2, §3

[10] = target: T6, FcγRIIIa type V extracellular domain …; assay: SPR (Biacore T100), ratio of KD values
Procedure: as §1, §2, §3

[11] = target: T2, FcγRIIa type R extracellular domain …; assay: SPR (Biacore T100), ratio of KD values
Procedure: as §1, §2, §3

[12] = target: T3, FcγRIIb extracellular domain with …; assay: SPR (Biacore T100), ratio of KD values
Procedure: as §1, §2, §3

T5 sequence (P12314 16-292): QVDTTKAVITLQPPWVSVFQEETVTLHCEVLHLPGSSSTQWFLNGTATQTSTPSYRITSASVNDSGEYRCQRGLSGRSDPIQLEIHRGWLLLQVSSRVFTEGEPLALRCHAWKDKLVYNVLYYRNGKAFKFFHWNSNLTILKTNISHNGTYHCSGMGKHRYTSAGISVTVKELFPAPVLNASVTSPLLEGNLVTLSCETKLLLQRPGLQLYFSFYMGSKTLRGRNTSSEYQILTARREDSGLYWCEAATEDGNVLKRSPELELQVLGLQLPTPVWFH
T4 sequence (P08637 17-208): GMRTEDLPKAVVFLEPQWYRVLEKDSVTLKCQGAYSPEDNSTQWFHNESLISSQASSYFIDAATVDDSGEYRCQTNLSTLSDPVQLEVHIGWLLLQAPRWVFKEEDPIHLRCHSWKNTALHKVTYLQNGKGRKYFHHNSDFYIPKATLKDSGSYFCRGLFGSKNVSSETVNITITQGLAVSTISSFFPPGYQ
T6 sequence (P08637 17-208 F176V): as the sequence (P08637 17-208) above, with F160V counted along it

| Kd [1] [nM] | Kd [2] [nM] | Kd [3] [nM] | Kd [4] [nM] | Kd [5] [nM] | Kd [6] [nM] | KD ratio [7] | KD ratio [8] | KD ratio [9] | KD ratio [10] | KD ratio [11] | KD ratio [12] | Binder |
| --- | --- | --- | --- | --- | --- | --- | --- | --- | --- | --- | --- | --- |
| 1600 | 0.069 | 590 | 220 | 740 | 3600 | 1 fold (KD of GpH7-Kn033/GpH7-Hl033/GpL16-k0 divided by KD of this antibody) | 1 fold (KD of GpH7-Kn033/GpH7-Hl033/GpL16-k0 divided by KD of this antibody) | 1 fold (KD of GpH7-Kn033/GpH7-Hl033/GpL16-k0 divided by KD of this antibody) | 1 fold (KD of GpH7-Kn033/GpH7-Hl033/GpL16-k0 divided by KD of this antibody) | 1 fold (KD of GpH7-Kn033/GpH7-Hl033/GpL16-k0 divided by KD of this antibody) | 1 fold (KD of GpH7-Kn033/GpH7-Hl033/GpL16-k0 divided by KD of this antibody) | GpH7-Kn033/GpH7-Hl033/GpL16-k0 (antibody, human IgG1, kappa, Anti-glypican-3 IgG1 with knobs-into-holes alone; also called Kn033/Hl033) heavy 1: not shown heavy 2: not shown light: DIVMTQSPLSLPVTPGEPASISCQASESLVHSNRNTYLHWYLQKPGQSPQLLIYKVSNRFSGVPDRFSGSGSGTDFTLKISRVEAEDVGVYYCSQNTHVPPTFGQGTKVEIERTVAAPSVFIFPPSDEQLKSGTASVVCLLNNFYPREAKVQWKVDNALQSGNSQESVTEQDSKDSTYSLSSTLTLSKADYEKHKVYACEVTHQGLSSPVTKSFNRGEC |
| 9.7 | 0.012 | 27 | 2.6 | 17 | 230 | 161 fold (KD of GpH7-Kn033/GpH7-Hl033/GpL16-k0 divided by KD of this antibody) | 6 fold (KD of GpH7-Kn033/GpH7-Hl033/GpL16-k0 divided by KD of this antibody) | 22 fold (KD of GpH7-Kn033/GpH7-Hl033/GpL16-k0 divided by KD of this antibody) | 84 fold (KD of GpH7-Kn033/GpH7-Hl033/GpL16-k0 divided by KD of this antibody) | 43 fold (KD of GpH7-Kn033/GpH7-Hl033/GpL16-k0 divided by KD of this antibody) | 16 fold (KD of GpH7-Kn033/GpH7-Hl033/GpL16-k0 divided by KD of this antibody) | GpH7-Kn037/GpH7-Hl036/GpL16-k0 (antibody, human IgG1, kappa, also called Kn037/Hl036) heavy 1: QVQLVQSGAEVKKPGASVTVSCKASGYTFTDYEMHWIRQPPGEGLEWIGAIDPKTGDTAYSESFQDRVTLTADKSTSTAYMELSSLTSEDTAVYYCTRFYSYTYWGQGTLVTVSSASTKGPSVFPLAPSSKSTSGGTAALGCLVKDYFPEPVTVSWNSGALTSGVHTFPAVLQSSGLYSLSSVVTVPSSSLGTQTYICNVNHKPSNTKVDKKVEPKSCDKTHTCPPCPAPELLAGPDVFLFPPKPKDTLMISRTPEVTCVVVDVSHEDPEVKFNWYVDGVEVHNAKTKPREEQYNSTYRVVSVLTVLHQDWLNGKEYKCKVSNKALPAPEEKTISKAKGQPREPQVCTLPPSRDELTKNQVSLWCLVKGFYPSDIAVEWESNGQPENNYKTTPPVLDSDGSFFLYSKLTVDKSRWQQGNVFSCSVMHEALHNHYTQKSLSLSP heavy 2: QVQLVQSGAEVKKPGASVTVSCKASGYTFTDYEMHWIRQPPGEGLEWIGAIDPKTGDTAYSESFQDRVTLTADKSTSTAYMELSSLTSEDTAVYYCTRFYSYTYWGQGTLVTVSSASTKGPSVFPLAPSSKSTSGGTAALGCLVKDYFPEPVTVSWNSGALTSGVHTFPAVLQSSGLYSLSSVVTVPSSSLGTQTYICNVNHKPSNTKVDKKVEPKSCDKTHTCPPCPAPELLAGPDVFLFPPKPKDTLMISRTPEVTCVVVDVSHEDPEVKFNWYVDGVEVHNAKTKPREEQYNSTYRVVSVLTVLHQDWLNGKEYKCKVSNKALPAPEEKTISKAKGQPREPQVYTLPPSRCELTKNQVSLSCAVKGFYPSDIAVEWESNGQPENNYKTTPPVLDSDGSFFLVSKLTVDKSRWQQGNVFSCSVMHEALHNHYTQKSLSLSP light: DIVMTQSPLSLPVTPGEPASISCQASESLVHSNRNTYLHWYLQKPGQSPQLLIYKVSNRFSGVPDRFSGSGSGTDFTLKISRVEAEDVGVYYCSQNTHVPPTFGQGTKVEIERTVAAPSVFIFPPSDEQLKSGTASVVCLLNNFYPREAKVQWKVDNALQSGNSQESVTEQDSKDSTYSLSSTLTLSKADYEKHKVYACEVTHQGLSSPVTKSFNRGEC |
| 4.1 | 0.0028 | 470 | 1.2 | 250 | 440 | 381 fold (KD of GpH7-Kn033/GpH7-Hl033/GpL16-k0 divided by KD of this antibody) | 24 fold (KD of GpH7-Kn033/GpH7-Hl033/GpL16-k0 divided by KD of this antibody) | 1.2 fold (KD of GpH7-Kn033/GpH7-Hl033/GpL16-k0 divided by KD of this antibody) | 182 fold (KD of GpH7-Kn033/GpH7-Hl033/GpL16-k0 divided by KD of this antibody) | 3 fold (KD of GpH7-Kn033/GpH7-Hl033/GpL16-k0 divided by KD of this antibody) | 8.2 fold (KD of GpH7-Kn033/GpH7-Hl033/GpL16-k0 divided by KD of this antibody) | GpH7-Kn032/GpH7-Hl032/GpL16-k0 (antibody, human IgG1, kappa, also called Kn032/Hl032) heavy 1: QVQLVQSGAEVKKPGASVTVSCKASGYTFTDYEMHWIRQPPGEGLEWIGAIDPKTGDTAYSESFQDRVTLTADKSTSTAYMELSSLTSEDTAVYYCTRFYSYTYWGQGTLVTVSSASTKGPSVFPLAPSSKSTSGGTAALGCLVKDYFPEPVTVSWNSGALTSGVHTFPAVLQSSGLYSLSSVVTVPSSSLGTQTYICNVNHKPSNTKVDKKVEPKSCDKTHTCPPCPAPELLGGPDVFLFPPKPKDTLMISRTPEVTCVVVDVSHEDPEVKFNWYVDGVEVHNAKTKPREEQYNSTYRVVSVLTVLHQDWLNGKEYKCKVSNKALPLPEEKTISKAKGQPREPQVCTLPPSRDELTKNQVSLWCLVKGFYPSDIAVEWESNGQPENNYKTTPPVLDSDGSFFLYSKLTVDKSRWQQGNVFSCSVMHEALHNHYTQKSLSLSP heavy 2: QVQLVQSGAEVKKPGASVTVSCKASGYTFTDYEMHWIRQPPGEGLEWIGAIDPKTGDTAYSESFQDRVTLTADKSTSTAYMELSSLTSEDTAVYYCTRFYSYTYWGQGTLVTVSSASTKGPSVFPLAPSSKSTSGGTAALGCLVKDYFPEPVTVSWNSGALTSGVHTFPAVLQSSGLYSLSSVVTVPSSSLGTQTYICNVNHKPSNTKVDKKVEPKSCDKTHTCPPCPAPELLGGPDVFLFPPKPKDTLMISRTPEVTCVVVDVSHEDPEVKFNWYVDGVEVHNAKTKPREEQYNSTYRVVSVLTVLHQDWLNGKEYKCKVSNKALPLPEEKTISKAKGQPREPQVYTLPPSRCELTKNQVSLSCAVKGFYPSDIAVEWESNGQPENNYKTTPPVLDSDGSFFLVSKLTVDKSRWQQGNVFSCSVMHEALHNHYTQKSLSLSP light: DIVMTQSPLSLPVTPGEPASISCQASESLVHSNRNTYLHWYLQKPGQSPQLLIYKVSNRFSGVPDRFSGSGSGTDFTLKISRVEAEDVGVYYCSQNTHVPPTFGQGTKVEIERTVAAPSVFIFPPSDEQLKSGTASVVCLLNNFYPREAKVQWKVDNALQSGNSQESVTEQDSKDSTYSLSSTLTLSKADYEKHKVYACEVTHQGLSSPVTKSFNRGEC |
